Substitutions are numbered along the chain they refer to.
B1: LK-RB2-24.h2 (antibody, human IgG4, kappa, V domains shown)
VH: QVQLVQSGSELKKPGASVKVSCKASGYTFTTYGMSWVKQAPGQGLKWMGWLNIYSGVPAYADDFKGRFVFSLDTSASTAYLQISSLKAEDTAVYFCARRENYDGYGMDYWGQGTLVTVSS
VL: EIVLTQSPATLSLSPGERATLSCRASQSISDYLHWYQQKPGQAPRLLIKYASQSISGIPSRFSGSGSGTDFTLTISSLEPEDFAVYYCQNGHSFPYTFGGGTKLEIKR
notes: Humanized form of LK-RB2-24
B2: LK-RB2-24.h1 (antibody, human IgG4, kappa, V domains shown)
VH: B1 VH
VL: B1 VL with S60A
notes: Humanized form of LK-RB2-24
B3: LK-RB2-24.h3 (antibody, human IgG4, kappa, V domains shown)
VH: B1 VH
VL: B1 VL with F83V
notes: Humanized form of LK-RB2-24
B4: LK-RB2-5 (antibody, human IgG4 S228P, kappa, V domains shown)
VH: QIQLVQSGPELKKPGETVKISCKASGYTFTTYGMSWVKQAPGKGLKWMGWINTYSGVPTYADDFKGRFAFSLETSVSTAYLQINNLKNEDTATYFCARRDGYDGGGNFDYWGQGTTLTVSS
VL: DIVMTQSPATLSVTPGDRVSLSCRASQSISDYLHWYQQKSHESPRLLIKYASQSISGIPSRFSGSGSGSDFTLSINSVEPEDVGVYYCQNGHGFPWTFGGGTKLEIKR
B5: LK-RB1-59 (antibody, human IgG4 S228P, kappa, V domains shown)
VH: QIQLVQSGPELKKPGETVKISCKASGYTFTTYGMSWVKQAPGKGLKWMGWINTYSGVPTYADDFKGRFAFSLETSASTAYLQINNLKNEDTATYFCARRRIYYGNKGYAMDYWGQGTSVTVSS
VL: DIQMTQSPASLSVSVGETVTITCRASENIYSNLVWYQQKQGKSPQLLVYTATNLADGVPSRFSGSGSGTQFSLKINSLQSEDFGSYYCQHFWGTPWTFGGGTKLEIKR
B6: 12D12 (antibody, human IgG4 S228P, kappa, V domains shown)
VH: QVQLQQPGAELVKPGASVRMSCKASGYTFTSYWVHWVKQRPGQGLEWIGVIDPSDSYTSYNQNFKGKATLTVDTSSKTAYIHLSSLTSEDSAVYFCARGERYDGDYFAMDYWGQGTSVTVSS
VL: B5 VL with Q3V, V34A, T50A, G66R, F71Y, S85T, G93N, W96R
B7: LK-RB2-12 (antibody, human IgG4 S228P, kappa, V domains shown)
VH: QIQLVQSGPELKKPGETVKISCKASGYTFTTYGMSWVKQTPGKGLKWMGWINIYSGVPTYADDFKGRFVFSLEISASTAHLQINNLKNEDTATYFCARRKDYSGHCFDYWGQGTTLTVSS
VL: DIVLTQSPASLAVSPGQRATISCRASESVDTYGISFMHWYQQKPGQPPKLLIYRASNLESGIPARFSGSGSRTDFTLTINPVETDDVAIYYCQQSKKDPYTFGGGTKLEIKR
B8: LK-RB2-8 (antibody, human IgG4 S228P, kappa, V domains shown)
VH: QIQLVQSGPELKKPGETVKISCKASGYSFASYGMGWVKQAPGKGLKWLGWINTHSGVPTYADDFKGRFAFSLETSASTAYLQINNLKNEDTATYFCAHYGRPWFPYWGQGTLVTVSA
VL: DIQMTQSPASLSASVGETVTITCRTSENIYSYLAWYQQKQGKSPQLLVYNAKSLAEGVPSRFSGSGSGTQFSLRINSLQPEDFGTYYCQQHYETPLTFGAGTKLELKR
B9: LK-RB2-16 (antibody, human IgG4 S228P, kappa, V domains shown)
VH: B8 VH with S28T, A30T, S31T, G42E, L48M, H54N, V57A, A61G, P105A
VL: B8 VL with T25A, Q37H, K42E, S53T, R74K, T85S, Q90H, E93N, T94I
B10: LK-RB2-35 (antibody, human IgG4 S228P, kappa, V domains shown)
VH: EVQLQQSGPELVKPGASVKISCKASGYTFTDYNMHWVKQSHGKSLEWIGSIYPYNGGSDYNQKFKSKATLTVDNSSSTAYMELRSLTSEDSAVYYCASELTGLYAMDYWGQGTSVTVSS
VL: B4 VL with N90T, G93S, W96Y
B11: LK-RB2-24 (antibody, human IgG4 S228P, kappa, V domains shown)
VH: QIQLVQSGPEVKKPGETVKISCKASGYTFTTYGMSWVKQAPGKGLKWMGWLNIYSGVPAYADDFKGRFAFSLESSASTAYLQINNLKNEDTATYFCARRENYDGYGMDYWGQGTSVTVSS
VL: B4 VL with G93S, W96Y
B12: LK-RB2-45 (antibody, human IgG4 S228P, kappa, V domains shown)
VH: B7 VH with K46Q, I53V, V69A, I74A, H80Y, T93S, K100G, S103D, C106Y
VL: B4 VL with H34N, A51V, V83I, G93N, W96L, I106L
B13: LK-RB2-33 (antibody, human IgG4 S228P, kappa, V domains shown)
VH: EVQLQQSGVELVRPGALVKLSCKASGFNIKDYYMHWVKQRPEQGLEWIGWIDPEKGDTIYGPKFQGKASITADTSSNTAYLQLSSLTSEDTAVYYCSRGPNYGSSYAFAYWGQGTLVTVSA
VL: DVVMTQSHKFMSTSVGDRVTITCKASQDVSNAVAWYQQKPGQSPKLLIYSASYRYTGVPDRFTGSGSGTDFTFTISSMQAEDLAVYYCQQHYSLPWTFGGGTKLEIKR
B14: LK-RB2-23 (antibody, human IgG4 S228P, kappa, V domains shown)
VH: B7 VH with T40A, V69A, I74T, H80Y, K100G, S103D, H105Y, C106Y
VL: NIVLIQSAATLSVTPGDSVSLSCRASQSLSNGLHWYQQKSHESPRLLIKYGSQSISGIPSRFSGSGSGTDFTLSINSVETEDFGMYFCQQSDSWPHTFGSGTKLEIKR
B15: LK-RB1-39 (antibody, human IgG4 S228P, kappa, V domains shown)
VH: EVQLQQSGAELVRPGASVKLSCTASGFNIKDDYVHWVNQRPEQGLEWIGWIDPENGDTGYASKFQDKATITADTSSNTAYLHLSSLTSEDTAVYYCTTTRWTGSYWGQGTTLTVSS
VL: QIVLTQSPAIMSASPGEKVTITCSASSSVNYMHWFQQKPGSSPKLWIYSTANLASGVPARFSGSGSGTSYSLTISRMEAEDAATYYCQQRSSYPPTWTFGGGTKLEIKR
B16: LK-RB2-16 (antibody, human IgG4 S228P, kappa, V domains shown)
VH: B8 VH with S28T, A30T, S31T, G42E, L48M, H54N, V57A, A61G, P105A
VL: B8 VL with T25A, Q37H, K42E, S53T, R74K, T85S, Q90H, E93N, T94I
B17: LK-RB2-8 (antibody, human IgG4 S228P, kappa, V domains shown)
VH: B8 VH
VL: B8 VL
B18: LK-RB2-2.h1 (antibody, human IgG4, kappa, V domains shown)
VH: EVQLVESGGGLVKPGGSLRLSCAASGFTFSSYAMSWVRQAPGKGLEWVSYISSGGDYFHYADTVKGRFTISRDNAKNSLYLQMNSLRAEDTAVYYCAREGAHYDSSYLAWFAHWGQGTLVTVSS
VL: DIQMTQSPSSVSASVGDRVTITCRASENIYSNLAWYQQKPGKAPKLLIYAATNLAEGVPSRFSGSGSGTDYTLTISSLQPEDFATYYCQQFWDNPLTFGQGTKLEIKR
notes: Humanized form of LK-RB2-2
B19: LK-RB2-2.h2 (antibody, human IgG4, kappa, V domains shown)
VH: B18 VH
VL: B18 VL with I48V
notes: Humanized form of LK-RB2-2
B20: LK-RB2-2.h3 (antibody, human IgG4, kappa, V domains shown)
VH: B18 VH with S49A, A97T
VL: B18 VL
notes: Humanized form of LK-RB2-2

Biological target: T1, human LILRB1-his (human, UniProt Q8NHL6 24-458, limits assumed)
T1 construct: Analyte of the Biacore run; not shown: His tag
T1 sequence (Q8NHL6 24-458 limits assumed): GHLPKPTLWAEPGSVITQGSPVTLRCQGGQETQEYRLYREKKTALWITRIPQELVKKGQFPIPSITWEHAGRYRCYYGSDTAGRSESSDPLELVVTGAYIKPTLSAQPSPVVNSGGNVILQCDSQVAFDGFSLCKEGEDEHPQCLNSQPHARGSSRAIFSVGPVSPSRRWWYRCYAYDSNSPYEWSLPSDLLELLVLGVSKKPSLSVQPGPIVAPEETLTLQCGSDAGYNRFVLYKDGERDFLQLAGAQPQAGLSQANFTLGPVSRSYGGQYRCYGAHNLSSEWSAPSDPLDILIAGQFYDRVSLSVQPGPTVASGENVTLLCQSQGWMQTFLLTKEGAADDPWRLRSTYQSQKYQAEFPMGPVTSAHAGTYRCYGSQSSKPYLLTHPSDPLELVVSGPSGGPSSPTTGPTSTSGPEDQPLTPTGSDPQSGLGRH
Assay: SPR (Biacore 8K), antibody captured via Fc, LILRB1-his as analyte, 1:1 model

Binder	Kd	koff	kon
B1	31.6 nM	0.00582 s⁻¹	184000 M⁻¹ s⁻¹
B2	25.1 nM	0.00446 s⁻¹	177000 M⁻¹ s⁻¹
B3	20.1 nM	0.00335 s⁻¹	167000 M⁻¹ s⁻¹

Biological target: T2, human LILRB2 expressed on CHOK1 cells (CHOK1-hLILRB2) (human, UniProt Q8N423 22-597)
T2 construct: whole, on cells; also called CHOK1-LILRB2
T2 sequence (Q8N423 22-597): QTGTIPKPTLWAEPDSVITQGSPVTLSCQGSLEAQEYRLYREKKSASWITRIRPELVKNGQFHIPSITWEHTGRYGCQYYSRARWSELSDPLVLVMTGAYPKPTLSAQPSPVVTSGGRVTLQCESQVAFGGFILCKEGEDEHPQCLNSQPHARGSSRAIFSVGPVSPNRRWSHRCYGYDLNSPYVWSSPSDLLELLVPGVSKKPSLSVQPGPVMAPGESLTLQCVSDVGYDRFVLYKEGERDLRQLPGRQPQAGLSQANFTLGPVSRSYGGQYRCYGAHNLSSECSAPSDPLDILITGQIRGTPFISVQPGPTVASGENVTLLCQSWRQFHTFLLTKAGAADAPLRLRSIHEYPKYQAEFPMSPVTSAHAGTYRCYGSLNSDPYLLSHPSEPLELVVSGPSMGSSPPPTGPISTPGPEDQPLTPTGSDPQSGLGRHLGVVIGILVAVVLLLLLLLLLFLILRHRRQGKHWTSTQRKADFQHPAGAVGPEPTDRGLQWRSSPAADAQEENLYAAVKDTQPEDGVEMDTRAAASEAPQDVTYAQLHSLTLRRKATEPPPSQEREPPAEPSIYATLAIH
Assay: FACS binding to CHOK1-hLILRB2 cells

Binder	EC50	binding result
B4	0.27 nM	
B5		no binding
B6		no binding
B7	0.16 nM	
B8	7.23 nM	
B9	6.01 nM	

Biological target: T3, human LILRB1 expressed on CHOK1 cells (CHOK1-hLILRB1) (human, UniProt Q8NHL6 24-650)
T3 construct: whole, on cells; also called CHOK1-LILRB1
T3 sequence (Q8NHL6 24-650): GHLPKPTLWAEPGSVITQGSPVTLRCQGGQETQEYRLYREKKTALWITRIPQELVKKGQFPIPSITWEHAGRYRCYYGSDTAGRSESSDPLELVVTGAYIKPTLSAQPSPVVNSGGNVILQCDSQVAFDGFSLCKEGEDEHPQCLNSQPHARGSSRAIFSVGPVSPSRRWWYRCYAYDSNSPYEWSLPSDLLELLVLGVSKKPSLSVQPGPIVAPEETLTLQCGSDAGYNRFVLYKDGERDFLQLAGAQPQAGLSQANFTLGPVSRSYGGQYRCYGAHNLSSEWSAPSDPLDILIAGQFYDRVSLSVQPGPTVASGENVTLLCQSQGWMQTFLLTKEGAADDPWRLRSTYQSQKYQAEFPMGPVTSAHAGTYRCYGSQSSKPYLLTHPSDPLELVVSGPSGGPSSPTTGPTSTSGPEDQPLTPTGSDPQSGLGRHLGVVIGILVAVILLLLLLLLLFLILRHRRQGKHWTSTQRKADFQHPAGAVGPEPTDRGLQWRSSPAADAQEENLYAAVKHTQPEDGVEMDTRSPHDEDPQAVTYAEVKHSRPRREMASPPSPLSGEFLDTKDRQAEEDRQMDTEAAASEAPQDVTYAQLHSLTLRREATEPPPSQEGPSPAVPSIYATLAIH
Assay: cell based RBA, flow cytometry: blocking of HLA-G binding to CHOK1-hLILRB1 cells

Binder	EC50	Top Inhibition
B4	2.86 nM	70.8%
B5	1.61 nM	87.3%
B6	1.26 nM	89.1%
B7	2.16 nM	70.3%
B8	1.32 nM	32.7%
B9	13.4 nM	35.3%

Biological target: T4, human LILRB2 (human, UniProt Q8N423 22-460, limits assumed)
T4 construct: also called hLILRB2
T4 sequence (Q8N423 22-460 limits assumed): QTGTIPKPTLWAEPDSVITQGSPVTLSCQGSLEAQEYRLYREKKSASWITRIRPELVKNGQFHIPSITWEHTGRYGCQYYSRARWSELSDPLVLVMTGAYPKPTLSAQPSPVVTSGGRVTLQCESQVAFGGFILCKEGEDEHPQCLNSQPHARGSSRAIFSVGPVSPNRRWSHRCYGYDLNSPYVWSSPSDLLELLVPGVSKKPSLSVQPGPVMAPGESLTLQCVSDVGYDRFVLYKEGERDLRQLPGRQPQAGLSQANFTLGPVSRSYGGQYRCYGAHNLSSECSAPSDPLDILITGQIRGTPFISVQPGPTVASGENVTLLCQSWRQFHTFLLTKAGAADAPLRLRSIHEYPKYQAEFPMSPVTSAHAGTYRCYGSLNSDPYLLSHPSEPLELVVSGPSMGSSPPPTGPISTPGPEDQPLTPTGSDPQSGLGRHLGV
Assay: Octet off-rate ranking;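 note: antibody dissociation rate constants against cynomolgus LILRB2 plus human LILRB1, LILRB2, LILRA1 and LILRA2, measured on an Octet instrument to rank binding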
From the text: (§1) Binding affinity of anti-LILRB1 and anti-LILRB2 antibodies against human LILRB1, LILRB2, LILRA1, LILRA2 and cynomolgus LILRB2 was ranked by measuring dissociation rate constant (Kdis) using the Octet system.

Binder	koff
B10	0.0012 s⁻¹
B11	0.000244 s⁻¹
B12	8.84e-05 s⁻¹
B13	0.00139 s⁻¹
B14	0.000876 s⁻¹
B15	0.00153 s⁻¹
B16	5.5e-05 s⁻¹
B17	1e-07 s⁻¹

Biological target: T5, human LILRB1 (human, UniProt Q8NHL6 24-458, limits assumed)
T5 construct: also called hLILRB1
T5 sequence (Q8NHL6 24-458 limits assumed): as the sequence (Q8NHL6 24-458 limits assumed) above
Assay: Octet off-rate ranking;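 note: antibody dissociation rate constants against cynomolgus LILRB2 plus human LILRB1, LILRB2, LILRA1 and LILRA2, measured on an Octet instrument to rank binding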
From the text: as §1

Binder	koff
B11	0.000205 s⁻¹
B15	4.64e-05 s⁻¹
B16	0.000238 s⁻¹
B17	4.85e-05 s⁻¹

Biological target: T3, human LILRB1 expressed on CHOK1 cells …
Assay: FACS binding to CHOK1-hLILRB1 cells

Binder	EC50
B4	1.34 nM
B5	0.65 nM
B7	2.34 nM
B8	4.55 nM
B9	4.3 nM

Biological target: T6, human LILRB2-his (human, UniProt Q8N423 22-460, limits assumed)
T6 construct: Analyte of the Biacore run; not shown: His tag
T6 sequence (Q8N423 22-460 limits assumed): as the sequence (Q8N423 22-460 limits assumed) above
Assay: SPR (Biacore 8K), antibody captured via Fc, LILRB2-his as analyte, 1:1 model

Binder	Kd	koff	kon
B18	0.161 nM	0.000123 s⁻¹	766000 M⁻¹ s⁻¹
B19	0.208 nM	0.00014 s⁻¹	673000 M⁻¹ s⁻¹
B20	0.201 nM	0.000129 s⁻¹	642000 M⁻¹ s⁻¹
B1	1.01 nM	0.000871 s⁻¹	860000 M⁻¹ s⁻¹
B2	0.836 nM	0.000758 s⁻¹	907000 M⁻¹ s⁻¹
B3	0.852 nM	0.000638 s⁻¹	749000 M⁻¹ s⁻¹
